Assays:
Conditions in all cases: both partners purified
[1] = biological target: T1, p38α kinase (residues 1–360 of human p38α) (human, UniProt Q16539 1-360); test: NMR 15N CEST and CPMG relaxation dispersion + ITC; on-rate worked out from the off-rate of the NMR exchange analysis and the dissociation constant of ITC (ITC of ref. 35)
T1 construct: source: expressed and purified as described previously [34,35]

[2] = biological target: T1, p38α kinase (residues 1–360 of human …); test: NMR 15N CEST and CPMG relaxation dispersion; 247 μM 15N MKK4 with 6% molar ratio of p38α; data acquired previously [35], analysed here with a two-site exchange model
[3] = biological target: T2, JNK1 kinase (residues 1–364 of human JNK1 (isoform α1) with a C-terminal 6xHis tag) (human, UniProt P45983 1-364); test: NMR 15N CEST + ITC; on-rate worked out from the off-rate of CEST (5 °C) and the dissociation constant of ITC (20 °C)
T2 construct: Human JNK1 (c-Jun N-terminal kinase 1), isoform α1, residues 1-364; source: expressed and purified as described previously [34,35]
T2 sequence (P45983 1-364): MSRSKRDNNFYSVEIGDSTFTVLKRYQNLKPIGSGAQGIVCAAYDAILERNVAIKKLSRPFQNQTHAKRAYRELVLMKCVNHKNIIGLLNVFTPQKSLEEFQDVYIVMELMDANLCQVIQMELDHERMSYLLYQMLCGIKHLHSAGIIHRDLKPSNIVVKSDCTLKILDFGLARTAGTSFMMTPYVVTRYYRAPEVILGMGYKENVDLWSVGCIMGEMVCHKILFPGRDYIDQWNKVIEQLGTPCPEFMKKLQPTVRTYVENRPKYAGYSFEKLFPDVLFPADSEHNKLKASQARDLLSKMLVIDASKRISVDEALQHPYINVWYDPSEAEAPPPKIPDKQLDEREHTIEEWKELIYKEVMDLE

[4] = biological target: T2, JNK1 kinase (residues 1–364 of human …); test: NMR 15N CEST; 250 μM 15N MKK4 with 10% molar ratio of JNK1; 5 °C; 50 mM HEPES pH 7.1, 150 mM NaCl, 2 mM DTT, 5% glycerol; two-site exchange model (ChemEx)
[5] = biological target: T2, JNK1 kinase (residues 1–364 of human …); test: ITC; MKK4 (570 μM, with thioredoxin and 6xHis tag) titrated into JNK1 (42 μM); 20 °C; 50 mM HEPES pH 8.2, 150 mM NaCl, 10% glycerol, 0.5 mM TCEP; model of n identical and independent sites

T1 sequence (Q16539 whole entry, the tested form may be a part): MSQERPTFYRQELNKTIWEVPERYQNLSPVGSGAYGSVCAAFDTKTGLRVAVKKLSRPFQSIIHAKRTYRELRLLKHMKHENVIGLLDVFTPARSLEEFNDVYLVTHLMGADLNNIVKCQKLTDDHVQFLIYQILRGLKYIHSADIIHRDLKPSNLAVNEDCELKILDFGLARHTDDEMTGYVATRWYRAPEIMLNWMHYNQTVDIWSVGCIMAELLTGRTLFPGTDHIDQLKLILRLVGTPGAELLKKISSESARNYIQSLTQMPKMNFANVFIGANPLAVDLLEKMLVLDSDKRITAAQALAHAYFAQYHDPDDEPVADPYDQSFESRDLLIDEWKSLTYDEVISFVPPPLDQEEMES

| kon [1] [M⁻¹ s⁻¹] | koff [2] [s⁻¹] | population of the bound state (6% molar ratio of p38α) [2] [%] | kon [3] [M⁻¹ s⁻¹] | koff [4] [s⁻¹] | population of the bound state (10% molar ratio of JNK1) [4] [%] | Kd [5] [nM] | stoichiometry N [5] | Binder |
| --- | --- | --- | --- | --- | --- | --- | --- | --- |
| 5.01e+07 | 205 | 6.2 ± 0.1 | 6.95e+07 | 90 | 8.7 ± 0.1 | – | – | regulatory domain of MKK4 (residues 12–86 of human MKK4), 15N-labeled, for NMR (domain or fragment, UniProt P45985 12-86, looked up, Uniformly 15N-labeled for NMR; also called intrinsically disordered regulatory domain of MKK4; source: expressed and purified as described previously [34,35]) SGGGSGSGTPGPVGSPAPGHPAVSSMQGKRKALKLNFANPPFKSTARFTLNPNPTGVQNPHIERLRTHSIESSGK |
| – | – | – | – | – | – | 1300 | 1 | regulatory domain of MKK4 (residues 12–86) with N-terminal thioredoxin and 6xHis tag, unlabeled, for ITC (domain or fragment, human, UniProt P45985 12-86, looked up, source: expressed and purified as described previously [34,35]; size-exclusion chromatography in the ITC buffer; not shown: thioredoxin, N-terminal, kept; His6, N-terminal, kept) SGGGSGSGTPGPVGSPAPGHPAVSSMQGKRKALKLNFANPPFKSTARFTLNPNPTGVQNPHIERLRTHSIESSGK |
